Key:
[1] = target: T1, MTAF600 (microtubule associated factor 600) (human, UniProt Q5T4S7 1-5183); experiment: anti-FLAG immunoprecipitation of f:RB from HeLa nuclear extract, SDS-PAGE
T1 construct: Native endogenous protein of HeLa nuclear extracts (5183 residues); also called MT-associated factor (MTAF) 600; 600 kDa subunit

[2] = target: T1, MTAF600 (microtubule associated factor …); experiment: GST pull-down from HeLa nuclear extract, immunoblot
[3] = target: endogenous RB family proteins; experiment: cell-based or functional assay
[4] = target: T1, MTAF600 (microtubule associated factor …); experiment: MTAF600 immobilised on matrix incubated with GST-RB, immunoblot
[5] = target: T1, MTAF600 (microtubule associated factor …); experiment: co-immunoprecipitation from HeLa extract, immunoblot

T1 sequence (Q5T4S7 other isoform, or with tags, fused parts or gaps limits assumed): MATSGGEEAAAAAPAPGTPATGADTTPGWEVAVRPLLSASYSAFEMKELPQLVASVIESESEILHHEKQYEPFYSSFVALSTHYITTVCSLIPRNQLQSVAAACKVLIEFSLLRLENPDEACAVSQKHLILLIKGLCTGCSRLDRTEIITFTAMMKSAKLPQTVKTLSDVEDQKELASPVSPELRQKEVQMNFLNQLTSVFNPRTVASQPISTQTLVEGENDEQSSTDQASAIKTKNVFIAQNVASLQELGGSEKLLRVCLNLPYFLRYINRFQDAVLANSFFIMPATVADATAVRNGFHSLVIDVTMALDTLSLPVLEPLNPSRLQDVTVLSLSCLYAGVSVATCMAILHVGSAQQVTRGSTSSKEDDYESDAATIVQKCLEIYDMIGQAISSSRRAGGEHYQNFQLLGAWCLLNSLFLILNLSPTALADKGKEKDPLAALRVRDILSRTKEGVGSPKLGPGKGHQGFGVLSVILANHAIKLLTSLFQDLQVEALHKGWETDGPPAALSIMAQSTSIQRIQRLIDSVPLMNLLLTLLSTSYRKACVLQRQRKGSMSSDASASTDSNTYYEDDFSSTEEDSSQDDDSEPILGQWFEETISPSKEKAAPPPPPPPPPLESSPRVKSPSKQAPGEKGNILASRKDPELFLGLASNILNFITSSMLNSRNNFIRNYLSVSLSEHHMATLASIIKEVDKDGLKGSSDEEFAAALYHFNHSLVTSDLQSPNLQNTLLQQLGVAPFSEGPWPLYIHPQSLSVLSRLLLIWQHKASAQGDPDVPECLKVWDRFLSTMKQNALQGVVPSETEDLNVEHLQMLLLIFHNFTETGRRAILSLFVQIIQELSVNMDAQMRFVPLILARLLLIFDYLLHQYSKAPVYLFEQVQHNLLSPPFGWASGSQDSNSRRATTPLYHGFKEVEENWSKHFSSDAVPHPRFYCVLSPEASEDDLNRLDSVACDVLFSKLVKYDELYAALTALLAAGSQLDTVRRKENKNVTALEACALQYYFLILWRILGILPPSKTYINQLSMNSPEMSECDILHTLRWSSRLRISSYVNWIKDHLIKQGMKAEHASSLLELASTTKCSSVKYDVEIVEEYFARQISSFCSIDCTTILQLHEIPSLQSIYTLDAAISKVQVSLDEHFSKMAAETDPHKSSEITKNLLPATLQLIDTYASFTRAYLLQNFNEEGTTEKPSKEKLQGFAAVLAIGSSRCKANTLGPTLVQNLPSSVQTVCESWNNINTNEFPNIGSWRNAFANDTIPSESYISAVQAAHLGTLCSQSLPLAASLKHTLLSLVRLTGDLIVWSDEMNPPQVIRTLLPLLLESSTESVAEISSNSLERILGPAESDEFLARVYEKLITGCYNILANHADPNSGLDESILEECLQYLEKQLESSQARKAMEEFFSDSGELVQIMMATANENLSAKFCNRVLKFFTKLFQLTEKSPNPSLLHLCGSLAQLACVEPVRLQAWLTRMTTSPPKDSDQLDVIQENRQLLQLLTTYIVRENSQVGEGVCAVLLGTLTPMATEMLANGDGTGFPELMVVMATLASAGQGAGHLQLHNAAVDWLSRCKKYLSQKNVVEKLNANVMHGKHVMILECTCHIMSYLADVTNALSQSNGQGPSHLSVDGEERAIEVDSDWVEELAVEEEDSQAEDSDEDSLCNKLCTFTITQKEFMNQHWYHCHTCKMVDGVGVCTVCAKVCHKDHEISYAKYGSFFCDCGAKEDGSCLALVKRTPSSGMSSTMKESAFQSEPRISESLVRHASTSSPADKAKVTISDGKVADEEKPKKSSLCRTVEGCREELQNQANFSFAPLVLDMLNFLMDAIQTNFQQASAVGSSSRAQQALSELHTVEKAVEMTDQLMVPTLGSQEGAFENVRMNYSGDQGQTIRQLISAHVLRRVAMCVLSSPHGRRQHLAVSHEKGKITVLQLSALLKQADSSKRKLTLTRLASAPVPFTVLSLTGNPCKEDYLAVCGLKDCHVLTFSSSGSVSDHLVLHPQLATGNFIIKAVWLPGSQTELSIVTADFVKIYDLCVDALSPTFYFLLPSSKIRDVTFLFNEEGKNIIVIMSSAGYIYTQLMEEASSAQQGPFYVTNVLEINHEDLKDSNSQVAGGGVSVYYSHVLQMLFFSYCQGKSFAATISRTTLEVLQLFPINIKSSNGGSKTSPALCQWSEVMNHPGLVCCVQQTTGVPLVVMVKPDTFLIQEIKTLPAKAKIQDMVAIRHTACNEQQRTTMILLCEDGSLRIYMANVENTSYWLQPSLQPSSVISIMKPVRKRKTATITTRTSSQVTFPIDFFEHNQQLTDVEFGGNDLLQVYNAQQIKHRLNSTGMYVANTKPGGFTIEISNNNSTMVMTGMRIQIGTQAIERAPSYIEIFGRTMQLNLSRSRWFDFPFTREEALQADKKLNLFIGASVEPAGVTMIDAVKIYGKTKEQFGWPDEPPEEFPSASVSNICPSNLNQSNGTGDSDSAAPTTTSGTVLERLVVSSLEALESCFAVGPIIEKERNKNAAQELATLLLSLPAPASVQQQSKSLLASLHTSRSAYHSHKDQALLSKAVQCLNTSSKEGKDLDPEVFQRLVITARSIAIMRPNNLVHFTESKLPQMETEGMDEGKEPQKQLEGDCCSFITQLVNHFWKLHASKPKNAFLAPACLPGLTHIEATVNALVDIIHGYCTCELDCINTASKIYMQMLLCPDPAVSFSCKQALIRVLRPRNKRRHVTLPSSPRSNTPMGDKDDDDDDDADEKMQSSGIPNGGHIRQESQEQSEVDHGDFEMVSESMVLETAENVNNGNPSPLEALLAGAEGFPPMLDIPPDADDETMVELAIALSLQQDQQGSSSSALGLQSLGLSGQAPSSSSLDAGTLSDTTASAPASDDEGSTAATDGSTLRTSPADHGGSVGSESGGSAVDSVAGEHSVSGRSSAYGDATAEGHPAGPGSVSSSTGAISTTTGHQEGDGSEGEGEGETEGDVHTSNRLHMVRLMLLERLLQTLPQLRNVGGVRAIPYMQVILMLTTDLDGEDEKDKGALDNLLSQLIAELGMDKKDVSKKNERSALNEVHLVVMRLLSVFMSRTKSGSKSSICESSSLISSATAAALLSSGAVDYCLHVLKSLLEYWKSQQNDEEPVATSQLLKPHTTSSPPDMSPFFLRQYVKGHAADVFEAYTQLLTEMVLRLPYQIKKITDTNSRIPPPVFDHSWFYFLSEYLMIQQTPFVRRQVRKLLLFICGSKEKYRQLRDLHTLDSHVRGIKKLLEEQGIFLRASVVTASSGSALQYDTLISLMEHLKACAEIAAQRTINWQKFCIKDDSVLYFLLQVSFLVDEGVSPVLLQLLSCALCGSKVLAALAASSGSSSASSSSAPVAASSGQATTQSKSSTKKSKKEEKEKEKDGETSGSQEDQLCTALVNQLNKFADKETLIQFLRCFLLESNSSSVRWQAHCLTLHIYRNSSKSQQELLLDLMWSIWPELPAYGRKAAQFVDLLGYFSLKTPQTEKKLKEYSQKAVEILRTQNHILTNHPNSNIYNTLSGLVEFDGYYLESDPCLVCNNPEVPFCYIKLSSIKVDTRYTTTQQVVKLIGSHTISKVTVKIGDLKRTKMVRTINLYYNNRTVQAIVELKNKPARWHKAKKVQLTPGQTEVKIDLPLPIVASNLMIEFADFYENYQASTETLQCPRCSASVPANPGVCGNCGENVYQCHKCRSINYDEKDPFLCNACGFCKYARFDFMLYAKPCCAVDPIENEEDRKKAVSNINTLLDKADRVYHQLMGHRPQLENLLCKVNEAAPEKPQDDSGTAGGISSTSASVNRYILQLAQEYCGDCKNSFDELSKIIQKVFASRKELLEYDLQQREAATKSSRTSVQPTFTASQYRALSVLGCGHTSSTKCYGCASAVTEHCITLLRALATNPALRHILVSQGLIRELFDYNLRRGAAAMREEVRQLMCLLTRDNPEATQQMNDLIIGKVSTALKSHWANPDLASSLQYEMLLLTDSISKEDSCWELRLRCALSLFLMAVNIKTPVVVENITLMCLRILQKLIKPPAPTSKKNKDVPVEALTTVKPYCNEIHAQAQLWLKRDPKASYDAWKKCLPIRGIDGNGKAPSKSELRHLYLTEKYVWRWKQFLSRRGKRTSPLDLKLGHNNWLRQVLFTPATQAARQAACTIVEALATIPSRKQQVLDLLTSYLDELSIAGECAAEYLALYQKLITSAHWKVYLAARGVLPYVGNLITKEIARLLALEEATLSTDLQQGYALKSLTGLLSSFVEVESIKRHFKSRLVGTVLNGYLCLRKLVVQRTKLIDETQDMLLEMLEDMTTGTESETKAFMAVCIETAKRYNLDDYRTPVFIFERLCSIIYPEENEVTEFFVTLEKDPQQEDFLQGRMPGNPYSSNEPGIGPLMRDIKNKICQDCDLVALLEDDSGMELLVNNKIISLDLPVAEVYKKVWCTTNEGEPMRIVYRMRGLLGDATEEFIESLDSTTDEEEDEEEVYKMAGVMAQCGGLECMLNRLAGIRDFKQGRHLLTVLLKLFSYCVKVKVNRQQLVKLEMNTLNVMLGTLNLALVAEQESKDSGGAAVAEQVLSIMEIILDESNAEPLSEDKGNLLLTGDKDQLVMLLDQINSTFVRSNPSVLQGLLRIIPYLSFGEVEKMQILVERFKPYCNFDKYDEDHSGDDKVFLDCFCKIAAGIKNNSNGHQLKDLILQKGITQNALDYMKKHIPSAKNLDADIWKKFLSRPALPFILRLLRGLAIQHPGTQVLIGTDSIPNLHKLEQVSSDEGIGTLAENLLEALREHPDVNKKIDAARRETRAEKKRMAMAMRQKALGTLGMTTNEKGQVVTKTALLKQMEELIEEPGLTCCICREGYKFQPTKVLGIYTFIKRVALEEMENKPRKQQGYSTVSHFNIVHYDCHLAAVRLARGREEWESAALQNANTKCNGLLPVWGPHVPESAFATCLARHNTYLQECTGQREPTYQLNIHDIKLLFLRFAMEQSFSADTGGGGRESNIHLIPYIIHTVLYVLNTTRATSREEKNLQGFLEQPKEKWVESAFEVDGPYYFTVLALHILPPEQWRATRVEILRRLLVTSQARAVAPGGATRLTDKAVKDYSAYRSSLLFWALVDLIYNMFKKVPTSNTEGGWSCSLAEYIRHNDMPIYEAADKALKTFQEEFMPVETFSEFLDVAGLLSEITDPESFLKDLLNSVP

B1: FLAG-epitope-tagged RB (tag at the N-terminus) (other, UniProt P06400 1-928, looked up, not shown: small tags and cut ends)
chain: MPPKTPRKTAATAAAAAAEPPAPPPPPPPEEDPEQDSGPEDLPLVRLEFEETEEPDFTALCQKLKIPDHVRERAWLTWEKVSSVDGVLGGYIQKKKELWGICIFIAAVDLDEMSFTFTELQKNIEISVHKFFNLLKEIDTSTKVDNAMSRLLKKYDVLFALFSKLERTCELIYLTQPSSSISTEINSALVLKVSWITFLLAKGEVLQMEDDLVISFQLMLCVLDYFIKLSPPMLLKEPYKTAVIPINGSPRTPRRGQNRSARIAKQLENDTRIIEVLCKEHECNIDEVKNVYFKNFIPFMNSLGLVTSNGLPEVENLSKRYEEIYLKNKDLDARLFLDHDKTLQTDSIDSFETQRTPRKSNLDEEVNVIPPHTPVRTVMNTIQQLMMILNSASDQPSENLISYFNNCTVNPKESILKRVKDIGYIFKEKFAKAVGQGCVEIGSQRYKLGVRLYYRVMESMLKSEEERLSIQNFSKLLNDNIFHMSLLACALEVVMATYSRSTSQNLDSGTDLSFPWILNVLNLKAFDFYKVIESFIKAEGNLTREMIKHLERCEHRIMESLAWLSDSPLFDLIKQSKDREGPTDHLESACPLNLPLQNNHTAADMYLSPVRSPKKKGSTTRVNSTANAETQATSAFQTQKPLKSTSLSLFYKKVYRLAYLRLNTLCERLLSEHPELEHIIWTLFQHTLQNEYELMRDRHLDQIMMCSMYGICKVKNIDLKFKIIVTAYKDLPHAVQETFKRVLIKEEEYDSIIVFYNSVFMQRLKTNILQYASTRPPTLSPIPHIPRSPYKFPSSPLRIPGGNIYISPLKSPYKISEGLPTPTKMTPRSRILVSIGESFGTSEKFQKINQMVCNSDRVLKRSAEGSNPPKPLKKLRFDIEGSDEADGSKHLPGESKFQQKLAEMTSTRTRMQKQKMNDSMDTSNKEEK
notes: also called f:RB; f: RB
Q: Does B1 bind [1]?
A: binds

B2: GST-RB (646-928) (other, UniProt P06400 646-928, looked up)
chain: SLSLFYKKVYRLAYLRLNTLCERLLSEHPELEHIIWTLFQHTLQNEYELMRDRHLDQIMMCSMYGICKVKNIDLKFKIIVTAYKDLPHAVQETFKRVLIKEEEYDSIIVFYNSVFMQRLKTNILQYASTRPPTLSPIPHIPRSPYKFPSSPLRIPGGNIYISPLKSPYKISEGLPTPTKMTPRSRILVSIGESFGTSEKFQKINQMVCNSDRVLKRSAEGSNPPKPLKKLRFDIEGSDEADGSKHLPGESKFQQKLAEMTSTRTRMQKQKMNDSMDTSNKEEK
notes: Expressed in E. coli; not shown: glutathione S-transferase (GST) fusion partner of vector pGEX6P-1
Q: Does B2 bind [2]?
A: no binding

B3: FLAG-tagged MTAF600 (3910-4851), Q5T4S7 3910-4851 (protein)
chain: FDYNLRRGAAAMREEVRQLMCLLTRDNPEATQQMNDLIIGKVSTALKSHWANPDLASSLQYEMLLLTDSISKEDSCWELRLRCALSLFLMAVNIKTPVVVENITLMCLRILQKLIKPPAPTSKKNKDVPVEALTTVKPYCNEIHAQAQLWLKRDPKASYDAWKKCLPIRGIDGNGKAPSKSELRHLYLTEKYVWRWKQFLSRRGKRTSPLDLKLGHNNWLRQVLFTPATQAARQAACTIVEALATIPSRKQQVLDLLTSYLDELSIAGECAAEYLALYQKLITSAHWKVYLAARGVLPYVGNLITKEIARLLALEEATLSTDLQQGYALKSLTGLLSSFVEVESIKRHFKSRLVGTVLNGYLCLRKLVVQRTKLIDETQDMLLEMLEDMTTGTESETKAFMAVCIETAKRYNLDDYRTPVFIFERLCSIIYPEENEVTEFFVTLEKDPQQEDFLQGRMPGNPYSSNEPGIGPLMRDIKNKICQDCDLVALLEDDSGMELLVNNKIISLDLPVAEVYKKVWCTTNEGEPMRIVYRMRGLLGDATEEFIESLDSTTDEEEDEEEVYKMAGVMAQCGGLECMLNRLAGIRDFKQGRHLLTVLLKLFSYCVKVKVNRQQLVKLEMNTLNVMLGTLNLALVAEQESKDSGGAAVAEQVLSIMEIILDESNAEPLSEDKGNLLLTGDKDQLVMLLDQINSTFVRSNPSVLQGLLRIIPYLSFGEVEKMQILVERFKPYCNFDKYDEDHSGDDKVFLDCFCKIAAGIKNNSNGHQLKDLILQKGITQNALDYMKKHIPSAKNLDADIWKKFLSRPALPFILRLLRGLAIQHPGTQVLIGTDSIPNLHKLEQVSSDEGIGTLAENLLEALREHPDVNKKIDAARRETRAEKKRMAMAMRQKALGTLGMTTNEKGQVVTKTALLKQMEELIEEPGLTCCICREGYKFQPTK
Q: How did the cells in S-phase at 24 hr after replating (FACS, stably transfected U2OS cells; control cells 64%) [3] turn out when B3 was run?
A: 37%

B4: GST-RB (379-772) (other, UniProt P06400 379-772, looked up)
chain: MNTIQQLMMILNSASDQPSENLISYFNNCTVNPKESILKRVKDIGYIFKEKFAKAVGQGCVEIGSQRYKLGVRLYYRVMESMLKSEEERLSIQNFSKLLNDNIFHMSLLACALEVVMATYSRSTSQNLDSGTDLSFPWILNVLNLKAFDFYKVIESFIKAEGNLTREMIKHLERCEHRIMESLAWLSDSPLFDLIKQSKDREGPTDHLESACPLNLPLQNNHTAADMYLSPVRSPKKKGSTTRVNSTANAETQATSAFQTQKPLKSTSLSLFYKKVYRLAYLRLNTLCERLLSEHPELEHIIWTLFQHTLQNEYELMRDRHLDQIMMCSMYGICKVKNIDLKFKIIVTAYKDLPHAVQETFKRVLIKEEEYDSIIVFYNSVFMQRLKTNILQYA
notes: as for B2
Q: Does B4 bind [2]?
A: no binding

B5: GST-RB (379-928) (other, UniProt P06400 379-928, looked up)
chain: MNTIQQLMMILNSASDQPSENLISYFNNCTVNPKESILKRVKDIGYIFKEKFAKAVGQGCVEIGSQRYKLGVRLYYRVMESMLKSEEERLSIQNFSKLLNDNIFHMSLLACALEVVMATYSRSTSQNLDSGTDLSFPWILNVLNLKAFDFYKVIESFIKAEGNLTREMIKHLERCEHRIMESLAWLSDSPLFDLIKQSKDREGPTDHLESACPLNLPLQNNHTAADMYLSPVRSPKKKGSTTRVNSTANAETQATSAFQTQKPLKSTSLSLFYKKVYRLAYLRLNTLCERLLSEHPELEHIIWTLFQHTLQNEYELMRDRHLDQIMMCSMYGICKVKNIDLKFKIIVTAYKDLPHAVQETFKRVLIKEEEYDSIIVFYNSVFMQRLKTNILQYASTRPPTLSPIPHIPRSPYKFPSSPLRIPGGNIYISPLKSPYKISEGLPTPTKMTPRSRILVSIGESFGTSEKFQKINQMVCNSDRVLKRSAEGSNPPKPLKKLRFDIEGSDEADGSKHLPGESKFQQKLAEMTSTRTRMQKQKMNDSMDTSNKEEK
notes: Expressed in E. coli; also called large pocket domain of RB as GST fusion; not shown: glutathione S-transferase (GST) fusion partner of vector pGEX6P-1
Q: Does B5 bind [4]?
A: binds

B6: GST-RB (379-646) (other, UniProt P06400 379-646, looked up)
chain: MNTIQQLMMILNSASDQPSENLISYFNNCTVNPKESILKRVKDIGYIFKEKFAKAVGQGCVEIGSQRYKLGVRLYYRVMESMLKSEEERLSIQNFSKLLNDNIFHMSLLACALEVVMATYSRSTSQNLDSGTDLSFPWILNVLNLKAFDFYKVIESFIKAEGNLTREMIKHLERCEHRIMESLAWLSDSPLFDLIKQSKDREGPTDHLESACPLNLPLQNNHTAADMYLSPVRSPKKKGSTTRVNSTANAETQATSAFQTQKPLKSTS
notes: as for B2
Q: Does B6 bind [2]?
A: no binding

B7: hypophosphorylated RB (other, human, UniProt P06400 2-928, looked up)
chain: PPKTPRKTAATAAAAAAEPPAPPPPPPPEEDPEQDSGPEDLPLVRLEFEETEEPDFTALCQKLKIPDHVRERAWLTWEKVSSVDGVLGGYIQKKKELWGICIFIAAVDLDEMSFTFTELQKNIEISVHKFFNLLKEIDTSTKVDNAMSRLLKKYDVLFALFSKLERTCELIYLTQPSSSISTEINSALVLKVSWITFLLAKGEVLQMEDDLVISFQLMLCVLDYFIKLSPPMLLKEPYKTAVIPINGSPRTPRRGQNRSARIAKQLENDTRIIEVLCKEHECNIDEVKNVYFKNFIPFMNSLGLVTSNGLPEVENLSKRYEEIYLKNKDLDARLFLDHDKTLQTDSIDSFETQRTPRKSNLDEEVNVIPPHTPVRTVMNTIQQLMMILNSASDQPSENLISYFNNCTVNPKESILKRVKDIGYIFKEKFAKAVGQGCVEIGSQRYKLGVRLYYRVMESMLKSEEERLSIQNFSKLLNDNIFHMSLLACALEVVMATYSRSTSQNLDSGTDLSFPWILNVLNLKAFDFYKVIESFIKAEGNLTREMIKHLERCEHRIMESLAWLSDSPLFDLIKQSKDREGPTDHLESACPLNLPLQNNHTAADMYLSPVRSPKKKGSTTRVNSTANAETQATSAFQTQKPLKSTSLSLFYKKVYRLAYLRLNTLCERLLSEHPELEHIIWTLFQHTLQNEYELMRDRHLDQIMMCSMYGICKVKNIDLKFKIIVTAYKDLPHAVQETFKRVLIKEEEYDSIIVFYNSVFMQRLKTNILQYASTRPPTLSPIPHIPRSPYKFPSSPLRIPGGNIYISPLKSPYKISEGLPTPTKMTPRSRILVSIGESFGTSEKFQKINQMVCNSDRVLKRSAEGSNPPKPLKKLRFDIEGSDEADGSKHLPGESKFQQKLAEMTSTRTRMQKQKMNDSMDTSNKEEK
modifications: hypophosphorylated (sites not given)
notes: also called RB (hypo-phosphorylated)
Q: Does B7 bind [5]?
A: binds

B8: hyperphosphorylated RB (other, human, UniProt P06400 2-928, looked up)
chain: PPKTPRKTAATAAAAAAEPPAPPPPPPPEEDPEQDSGPEDLPLVRLEFEETEEPDFTALCQKLKIPDHVRERAWLTWEKVSSVDGVLGGYIQKKKELWGICIFIAAVDLDEMSFTFTELQKNIEISVHKFFNLLKEIDTSTKVDNAMSRLLKKYDVLFALFSKLERTCELIYLTQPSSSISTEINSALVLKVSWITFLLAKGEVLQMEDDLVISFQLMLCVLDYFIKLSPPMLLKEPYKTAVIPINGSPRTPRRGQNRSARIAKQLENDTRIIEVLCKEHECNIDEVKNVYFKNFIPFMNSLGLVTSNGLPEVENLSKRYEEIYLKNKDLDARLFLDHDKTLQTDSIDSFETQRTPRKSNLDEEVNVIPPHTPVRTVMNTIQQLMMILNSASDQPSENLISYFNNCTVNPKESILKRVKDIGYIFKEKFAKAVGQGCVEIGSQRYKLGVRLYYRVMESMLKSEEERLSIQNFSKLLNDNIFHMSLLACALEVVMATYSRSTSQNLDSGTDLSFPWILNVLNLKAFDFYKVIESFIKAEGNLTREMIKHLERCEHRIMESLAWLSDSPLFDLIKQSKDREGPTDHLESACPLNLPLQNNHTAADMYLSPVRSPKKKGSTTRVNSTANAETQATSAFQTQKPLKSTSLSLFYKKVYRLAYLRLNTLCERLLSEHPELEHIIWTLFQHTLQNEYELMRDRHLDQIMMCSMYGICKVKNIDLKFKIIVTAYKDLPHAVQETFKRVLIKEEEYDSIIVFYNSVFMQRLKTNILQYASTRPPTLSPIPHIPRSPYKFPSSPLRIPGGNIYISPLKSPYKISEGLPTPTKMTPRSRILVSIGESFGTSEKFQKINQMVCNSDRVLKRSAEGSNPPKPLKKLRFDIEGSDEADGSKHLPGESKFQQKLAEMTSTRTRMQKQKMNDSMDTSNKEEK
modifications: hyperphosphorylated (sites not given)
notes: also called P-RB
Q: Does B8 bind [5]?
A: binds

From US7067646 (Dana-Farber, dated 2006)
